Assay results published in PMC5792436, “TT(N)mGCCTC inhibits archaeal family B DNA polymerases”.

Experiments:
[1] = biological target: Taq DNA polymerase (Fig. 4A) (UniProt P19821 1-832); assay: EMSA; no Mg2+; 10 mM Tris-HCl pH 7.9, 50 mM KCl, 1 mM EDTA, 5% glycerol, 1 mM DTT, 25 ug/ml BSA; no MgCl2, no poly(dI-dC); 20 min at room temperature; 6% PAGE in 0.5X TBE; details: protein: commercial; label: 5' biotin
[2] = biological target: T1, KOD DNA polymerase, purified (pET22b-KOD) (UniProt D0VWU9 1-774); assay: EMSA; 2 nM DNA, no Mg2+; 10 mM Tris-HCl pH 7.9, 50 mM KCl, 1 mM EDTA, 5% glycerol, 1 mM DTT, 25 ug/ml BSA; no MgCl2, no poly(dI-dC); 20 min at room temperature; 6% PAGE in 0.5X TBE; details: protein: recombinant; tags: His; label: 5' biotin
T1 sequence: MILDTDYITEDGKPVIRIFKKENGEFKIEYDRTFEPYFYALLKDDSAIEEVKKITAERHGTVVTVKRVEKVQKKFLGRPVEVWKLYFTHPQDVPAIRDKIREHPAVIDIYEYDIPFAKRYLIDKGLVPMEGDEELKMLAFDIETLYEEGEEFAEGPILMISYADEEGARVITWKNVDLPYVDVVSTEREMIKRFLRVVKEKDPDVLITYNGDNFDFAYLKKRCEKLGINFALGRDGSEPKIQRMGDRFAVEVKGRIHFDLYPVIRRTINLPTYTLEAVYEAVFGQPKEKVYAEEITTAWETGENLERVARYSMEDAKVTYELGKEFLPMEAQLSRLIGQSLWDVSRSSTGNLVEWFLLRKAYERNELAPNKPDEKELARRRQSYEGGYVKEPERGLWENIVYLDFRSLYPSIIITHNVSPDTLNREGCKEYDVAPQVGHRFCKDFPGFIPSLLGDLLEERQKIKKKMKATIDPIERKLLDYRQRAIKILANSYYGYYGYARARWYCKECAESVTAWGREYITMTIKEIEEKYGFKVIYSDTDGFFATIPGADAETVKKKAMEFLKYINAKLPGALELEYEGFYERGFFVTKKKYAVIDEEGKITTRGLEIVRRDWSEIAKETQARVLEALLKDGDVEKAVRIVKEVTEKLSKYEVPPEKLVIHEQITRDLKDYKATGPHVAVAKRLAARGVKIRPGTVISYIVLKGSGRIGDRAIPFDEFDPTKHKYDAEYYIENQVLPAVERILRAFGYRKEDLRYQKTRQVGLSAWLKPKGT

Taq DNA polymerase (Fig. 4A), sequence (P19821 whole entry): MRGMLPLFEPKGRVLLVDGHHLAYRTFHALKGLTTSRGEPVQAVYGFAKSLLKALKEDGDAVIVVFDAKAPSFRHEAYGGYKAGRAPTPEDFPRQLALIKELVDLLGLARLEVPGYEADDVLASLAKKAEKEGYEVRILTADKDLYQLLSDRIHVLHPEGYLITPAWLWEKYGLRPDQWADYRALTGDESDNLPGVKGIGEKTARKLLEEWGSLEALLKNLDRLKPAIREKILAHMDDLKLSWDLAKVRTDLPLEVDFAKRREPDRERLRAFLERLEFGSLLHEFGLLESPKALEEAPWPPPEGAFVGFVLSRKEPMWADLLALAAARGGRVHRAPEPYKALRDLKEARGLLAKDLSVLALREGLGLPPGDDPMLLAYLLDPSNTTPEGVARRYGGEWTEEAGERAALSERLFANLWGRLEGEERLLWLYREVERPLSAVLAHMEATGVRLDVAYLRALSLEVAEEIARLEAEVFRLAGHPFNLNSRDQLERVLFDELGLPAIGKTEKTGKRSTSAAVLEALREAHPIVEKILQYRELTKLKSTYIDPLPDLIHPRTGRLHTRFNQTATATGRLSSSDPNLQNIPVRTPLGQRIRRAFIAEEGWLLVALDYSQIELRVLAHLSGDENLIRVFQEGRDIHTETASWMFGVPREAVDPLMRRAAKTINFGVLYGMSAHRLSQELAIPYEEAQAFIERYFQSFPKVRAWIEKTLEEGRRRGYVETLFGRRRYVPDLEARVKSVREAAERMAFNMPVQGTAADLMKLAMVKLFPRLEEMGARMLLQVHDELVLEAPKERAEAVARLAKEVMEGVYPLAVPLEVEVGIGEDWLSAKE

TACCGAGCTCTTACGCGTGCCTCTGACTTGCCTCAGAGC (ssDNA) [Bio-Olig2.5]
binding result [1]: no binding | Kd [2]: ~0.04 µM
